The values below come from PMC7057995, “Structural basis of RNA polymerase I pre-initiation complex formation and promoter melting”.

The target in this data set is Core factor (CF) wild type: Rrn6/Rrn7/Rrn11 (Saccharomyces cerevisiae, UniProt P32786;P40992;Q04712 1-894;1-514;1-507). The data set can be described thus: EMSA; 0.2 pmol DNA; 0.25, 0.5, 1 pmol CF; EMSA: 20 mM HEPES/KOH pH 7.8, 10% glycerol, 200 mM KCl, 1 mM MgCl2, 0.1 mg/ml BSA, 1 mM DTT, 30 min, temperature not stated; 6% native gel, 0.5x TBE. The note with it: protein: recombinant; tags: His (Ni-NTA purified); copies: 1;1;1; label: NTS -3 Atto647N; TS -5 Cy3; blunt. For orientation: A gel shift assay detects complexes by their altered migration in electrophoresis.
Sequence of Core factor (CF) wild type: Rrn6/Rrn7/Rrn11 (P32786 whole entry, chain 1 of 3): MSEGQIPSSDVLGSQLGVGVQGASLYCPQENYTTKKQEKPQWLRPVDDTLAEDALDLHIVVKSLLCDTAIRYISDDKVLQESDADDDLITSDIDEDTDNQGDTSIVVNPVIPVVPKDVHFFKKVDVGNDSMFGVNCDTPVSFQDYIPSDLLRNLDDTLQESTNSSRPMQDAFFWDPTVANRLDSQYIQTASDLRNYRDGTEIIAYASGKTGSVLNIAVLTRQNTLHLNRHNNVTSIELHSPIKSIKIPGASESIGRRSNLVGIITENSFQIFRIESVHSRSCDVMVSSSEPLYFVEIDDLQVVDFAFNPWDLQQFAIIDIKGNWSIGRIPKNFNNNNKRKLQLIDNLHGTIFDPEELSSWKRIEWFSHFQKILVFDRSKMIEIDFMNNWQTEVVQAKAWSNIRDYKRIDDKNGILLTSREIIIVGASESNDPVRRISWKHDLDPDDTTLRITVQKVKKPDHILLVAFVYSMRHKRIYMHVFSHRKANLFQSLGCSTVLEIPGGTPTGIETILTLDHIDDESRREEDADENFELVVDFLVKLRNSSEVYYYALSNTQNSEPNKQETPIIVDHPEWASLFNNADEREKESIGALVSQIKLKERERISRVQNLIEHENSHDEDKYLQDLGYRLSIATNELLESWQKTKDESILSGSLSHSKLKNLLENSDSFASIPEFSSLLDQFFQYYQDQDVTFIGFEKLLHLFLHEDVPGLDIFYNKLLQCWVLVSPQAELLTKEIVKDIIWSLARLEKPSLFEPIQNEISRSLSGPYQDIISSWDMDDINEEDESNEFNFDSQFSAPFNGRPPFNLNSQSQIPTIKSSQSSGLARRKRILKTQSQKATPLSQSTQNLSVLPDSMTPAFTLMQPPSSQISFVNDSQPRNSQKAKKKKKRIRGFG
Sequence of Core factor (CF) wild type: Rrn6/Rrn7/Rrn11 (P40992 whole entry, chain 2 of 3): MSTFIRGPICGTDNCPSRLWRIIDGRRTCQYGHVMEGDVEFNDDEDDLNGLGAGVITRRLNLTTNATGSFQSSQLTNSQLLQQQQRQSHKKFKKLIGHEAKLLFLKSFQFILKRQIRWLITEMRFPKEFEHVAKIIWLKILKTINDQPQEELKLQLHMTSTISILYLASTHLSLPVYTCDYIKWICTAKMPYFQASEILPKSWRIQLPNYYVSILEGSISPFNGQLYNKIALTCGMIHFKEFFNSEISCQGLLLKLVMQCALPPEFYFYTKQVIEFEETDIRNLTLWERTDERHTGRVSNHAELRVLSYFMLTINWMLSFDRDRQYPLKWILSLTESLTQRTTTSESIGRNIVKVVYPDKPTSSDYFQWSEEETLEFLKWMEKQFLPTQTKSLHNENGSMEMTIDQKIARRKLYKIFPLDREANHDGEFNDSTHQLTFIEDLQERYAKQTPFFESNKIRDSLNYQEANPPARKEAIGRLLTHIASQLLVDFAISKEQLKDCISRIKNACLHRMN
Sequence of Core factor (CF) wild type: Rrn6/Rrn7/Rrn11 (Q04712 whole entry, chain 3 of 3): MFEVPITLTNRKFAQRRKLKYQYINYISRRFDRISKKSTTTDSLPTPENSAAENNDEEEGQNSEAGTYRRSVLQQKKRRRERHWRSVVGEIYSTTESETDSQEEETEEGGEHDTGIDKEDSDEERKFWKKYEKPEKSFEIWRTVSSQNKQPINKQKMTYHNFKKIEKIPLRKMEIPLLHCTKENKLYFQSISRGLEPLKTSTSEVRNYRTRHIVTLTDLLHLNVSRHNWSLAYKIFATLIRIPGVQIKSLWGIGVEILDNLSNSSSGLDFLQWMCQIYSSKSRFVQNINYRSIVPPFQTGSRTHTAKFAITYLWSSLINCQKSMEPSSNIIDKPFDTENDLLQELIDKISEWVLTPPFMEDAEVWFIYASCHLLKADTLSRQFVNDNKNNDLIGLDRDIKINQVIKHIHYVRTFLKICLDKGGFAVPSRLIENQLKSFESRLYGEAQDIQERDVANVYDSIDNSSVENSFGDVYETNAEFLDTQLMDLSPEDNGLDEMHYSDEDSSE

B1: rDNA promoter -83 to +26 (EMSA; ID 4691/4692) (dsDNA)
DNA 1: AAAAGTAAGATTTTAGTTTGTAATGGGAGGGGGAATTTAGTCATGGAGTACAAGTGTGAGGAAAAGTAGTTGGGAGGTACTTCATACCAAAGGGGTTCAACACAAGGGT
DNA 2: ACCCTTGTGTTGAACCCCTTTGGTATGAAGTACCTCCCAACTACTTTTCCTCACACTTGTACTCCATGACTAAATTCCCCCTCCCATTACAAACTAAAATCTTACTTTT
As to B1, the binding result is on record as “binds”.
